Experimental data taken from PMC5852647, “Structural basis of siRNA recognition by TRBP double‐stranded RNA binding domains”.
Positions count from the first letter of the chain named.

B1: EL86 siRNA, Cy3B-labeled (dsRNA)
RNA 1: UUAAUUAUCUAUUCCGUACUU
RNA 2: GUACGGAAUAGAUAAUUAAUU
modifications: 3' biotin on EL86up; 3' amino modifier on EL86down
B2: EL86 siRNA (dsRNA)
RNA 1: UUAAUUAUCUAUUCCGUACUU
RNA 2: GUACGGAAUAGAUAAUUAAUU

Assays:
TRBP dsRBD12 M100S = target: T1, TRBP dsRBD12 M100S (human, UniProt Q15633 16-158+=T+159-227, C73A;M100S;C196V;internal_change); assay: single-molecule FRET; 25 mM KCl; two configurations; smFRET: 20 mM Tris-HCl pH 7.4, 125 mM KCl (affinity) or 25 mM KCl (orientation), 15 nM BSA, 0.001% Tween-20, 295 K; NMR buffer not in material; conditions: protein: recombinant; tags: CF660R at C158; label: Cy3B at 3' end of EL86down; 19 bp, 3' overhang 2 nt (UU) on both strands
T1 sequence: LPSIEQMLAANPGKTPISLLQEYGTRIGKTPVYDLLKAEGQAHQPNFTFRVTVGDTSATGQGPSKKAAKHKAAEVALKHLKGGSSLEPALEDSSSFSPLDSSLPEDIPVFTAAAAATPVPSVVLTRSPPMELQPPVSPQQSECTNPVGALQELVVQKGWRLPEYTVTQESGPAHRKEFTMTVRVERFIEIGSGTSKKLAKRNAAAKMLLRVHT

TRBP dsRBD12 M100C/C158S = target: T2, TRBP dsRBD12 M100C/C158S (human, UniProt Q15633 16-158+=T+159-227, C73A;M100C;C158S;C196V;internal_change); assay: as above; conditions: protein: recombinant; tags: CF660R at C100; label: Cy3B at 3' end of EL86down; 19 bp, 3' overhang 2 nt (UU) on both strands
T2 sequence: T1 sequence with S85C, C143S

[1] = target: T3, TRBP dsRBD12 Cy3B-CF660R (doubly labeled) (human, UniProt Q15633 16-158+=T+159-227, C73A;M100C;C196V;internal_change); assay: single-molecule FRET titration; 125 mM KCl, 20 mM Tris-HCl pH 7.4, 295 K; smFRET: 20 mM Tris-HCl pH 7.4, 125 mM KCl (affinity) or 25 mM KCl (orientation), 15 nM BSA, 0.001% Tween-20, 295 K; NMR buffer not in material; conditions: protein: recombinant; tags: Cy3B and CF660R at C100 and C158; pET47b(+)-based vector; 19 bp, 3' overhang 2 nt (UU) on both strands
T3 sequence: T1 sequence with S85C

Binder	binding result (TRBP dsRBD12 M100S)	binding result (TRBP dsRBD12 M100C/C158S)	Kd [1] [nM]
B1	binds	binds	–
B2	–	–	0.21 ± 0.03
